Experimental data: patent US20180086841A1 (Merck Sharp & Dohme, published 2018)
Where a chain is given by its changes, count along the chain named.

T1: Q41A
T1 construct: also called hCD27 Q41A
T1 receptor chain: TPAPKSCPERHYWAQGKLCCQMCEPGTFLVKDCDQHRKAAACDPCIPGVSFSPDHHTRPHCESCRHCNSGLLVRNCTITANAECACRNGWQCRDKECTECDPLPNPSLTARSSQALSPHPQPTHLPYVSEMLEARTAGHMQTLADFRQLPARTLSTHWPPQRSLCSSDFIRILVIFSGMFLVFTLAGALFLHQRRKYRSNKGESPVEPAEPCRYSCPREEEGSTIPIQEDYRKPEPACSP

T2: D43A
T2 construct: also called hCD27 D43A
T2 receptor chain: T1 receptor chain with A41Q, D43A

T3: K31A
T3 construct: also called hCD27 K31A
T3 receptor chain: T1 receptor chain with K31A, A41Q

T4: G16A
T4 construct: also called hCD27 G16A
T4 receptor chain: T1 receptor chain with G16A, A41Q

T5: K17A
T5 construct: also called hCD27 K17A
T5 receptor chain: T1 receptor chain with K17A, A41Q

T6: Q91A
T6 construct: also called hCD27 Q91A
T6 receptor chain: T1 receptor chain with A41Q, Q91A

T7: W90A
T7 construct: also called hCD27 W90A
T7 receptor chain: T1 receptor chain with A41Q, W90A

T8: Q15A
T8 construct: also called hCD27 Q15A
T8 receptor chain: T1 receptor chain with Q15A, A41Q

T9: H60A
T9 construct: also called hCD27 H60A
T9 receptor chain: T1 receptor chain with A41Q, H60A

T10: W13A
T10 construct: also called hCD27 W13A
T10 receptor chain: T1 receptor chain with W13A, A41Q

B1: hCD27.15-6B (antibody, human IgG4 S228P, kappa, V domains shown)
VH: QVQLVQSGAEVKKPGASVKVSCKASGFIIKATYMHWVRQAPGQRLEWMGRIDPANGETKYDPKFQVRVTITADTSASTAYMELSSLRSEDTAVYYCARYAWYFDVWGQGTLVTVSS
VL: DIQMTQSPSSLSASVGDRVTITCRASENIYSFLAWYQQKPGKAPKLLIYHAKTLAEGVTSRFSGSGSGTDFTLTISSLQPEDSATYYCQHYYGSPLTFGQGTRLEIKR
notes: also called hCD27.15 (humanized 6B); humanized hCD27.15 (human IgG4, Clone 6B)
B2: hCD27.131A (mouse parental 131A) (antibody, mouse IgG1, V domains shown)
VH: QIQLVQSGPELKKPGETVKISCKASGYTFTNYGMNWVKQAPGKGLKWMGWINTNTGEPTYAEEFKGRFAFSLETSATTAYLQINNLKNEDTATYFCAREGDAMDYWGQGTSVTVSS
VL: QIVLTQSPAIMSASPGEKVTMTCSASSSVSYMHWYQQKSGTSPKRWIYDTSKLASGVPARFSGSGSGTSYSLTISSMEAEDAATYYCQQWNSYPFTFGSGTKLEIK
notes: Mouse IgG1 antibody; also called mouse hCD27.131A

Tests used:
[1] = target: T1, Q41A; experiment: flow cytometry on CHO-K1 transfectants, cell hatched (loss of binding)
Method: (§1) The ability of several anti-hCD27 antibodies to bind to a series of hCD27 alanine mutants was determined using CHO-K1 cells, transiently transfected pCI-neo empty vector, pCI-neo.hCD27 and several pCI-neo.CD27Ala mutant constructs.
(§2) Detached cells were transferred to 96 wells round-bottomed well plates at approximately 1.2×10⁵ cells/well. After spinning down the cells, discarding the supernatants and re-suspending the cells in the residual volume, the primary antibodies were added and incubated for 30 minutes at 4° C. Cells were washed three times with DPBS/BSA 1%, followed by centrifugation, discarding of the supernatants and re-suspension in the residual volume. […] After washing once, antibody binding was detected using the HTS plate reader (FACS Canto II) and FlowJo software for data analysis. Debris, dead cells and doublets were excluded from the analysis. Binding was expressed as the geometric mean of the FITC signal, relative to antibody binding to hCD27, which was set at 100%.

[2] = target: T2, D43A; experiment: as above
Method: as §1, §2

[3] = target: T3, K31A; experiment: as above
Method: as §1, §2

[4] = target: T4, G16A; experiment: flow cytometry on CHO-K1 transfectants, left sub-column
Method: (§3) The hCD27 variants that were tested are listed. Amino acids correspond to the UniProt P26842-1 sequence. Amino acids 1-20 constitute the signal peptide. Binding is expressed as the geometric mean of the FITC signal, relative to antibody binding to hCD27, which was set at 100%.
as §1, §2

[5] = target: T5, K17A; experiment: flow cytometry on CHO-K1 transfectants, right sub-column
Method: as §3, §1, §2

[6] = target: T6, Q91A; experiment: as above
Method: as §3, §1, §2

[7] = target: T7, W90A; experiment: as above
Method: as §3, §1, §2

[8] = target: T4, G16A; experiment: as above
Method: as §3, §1, §2

[9] = target: T8, Q15A; experiment: as above
Method: as §3, §1, §2

[10] = target: T9, H60A; experiment: as above
Method: as §3, §1, §2

[11] = target: T10, W13A; experiment: as above
Method: as §3, §1, §2

Binder	binding, WT hCD27 = 100 (GM FITC) [1] [%]	binding, WT hCD27 = 100 (GM FITC) [2] [%]	binding, WT hCD27 = 100 (GM FITC) [3] [%]	binding, WT hCD27 = 100 (GM FITC) [4] [%]	binding, WT hCD27 = 100 (GM FITC) [5] [%]	binding, WT hCD27 = 100 (GM FITC) [6] [%]	binding, WT hCD27 = 100 (GM FITC) [7] [%]	binding, WT hCD27 = 100 (GM FITC) [8] [%]	binding, WT hCD27 = 100 (GM FITC) [9] [%]	binding, WT hCD27 = 100 (GM FITC) [10] [%]	binding, WT hCD27 = 100 (GM FITC) [11] [%]
B1	33.9	31	30.3	–	–	–	–	–	–	–	–
B2	–	–	–	94.8	126	136	102	108	136	129	88.6
